From patent US20040191240A1, “Composition and method for nerve regeneration” (priority 2003, published 2004)

T1: RhoA complexed with Rho GDI (Bos taurus, UniProt P19803)
T1 construct: GST (N, cleaved yes); made in house; host or cells: yeast (RhoA, from membranes); E. coli (Rho GDI, pGEX)
T1 sequence (P19803 1-204): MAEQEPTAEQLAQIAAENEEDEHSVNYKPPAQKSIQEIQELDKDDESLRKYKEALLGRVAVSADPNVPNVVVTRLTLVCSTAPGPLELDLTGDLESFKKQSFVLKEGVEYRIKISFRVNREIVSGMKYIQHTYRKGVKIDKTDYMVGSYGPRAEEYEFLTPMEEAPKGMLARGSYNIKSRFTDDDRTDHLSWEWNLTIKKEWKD


Columns and labels:
[1] = target: T1, RhoA complexed with Rho GDI; assay: In vitro nucleotide exchange assay; assay type: biochemical; conditions: high Mg2+; 50 nM complex, 90 nM GST-Dbl
Method: Lipid-modified RhoA was purified from yeast membranes as described (Forget, M. A., Desrosiers, R. R., Gingras, D. & Beliveau, R., Biochem. J. 361, 243-54(2002)). [^3H]GDP- or GDP-RhoA complexed with Rho GDI was obtained by first incubating GDP-RhoA with or without [^3H]GDP, followed by incubation with Rho GDI for 30 min, as described previously (Takahashi, K. et al., J. Biol. Chem. 272, 23371-23375 (1997)). The sample, subjected to gel filtration, was equilibrated with 20 mM Tris-HCl (pH 7.5) containing 5 mM MgCl2, 1 mM dithiothreitol and 0.1% CHAPS. The GDP dissociation and GTP binding assays were carried out by the filter binding method as described previously (Hart, M. J., Eva, A., Evans, T., Aaronson, S. A. & Cerione, R. A., Nature 354, 311-314 (1991)). In the [^3H]GDP dissociation assay, 50 nM of the complex was incubated for 20 min with various concentrations of GST-fused proteins in a reaction mixture (50 μl) containing 30 mM Tris-HCl (pH 7.5), 5 mM or 0.5 μM MgCl2, 1 (for low Mg) or 10 (for high Mg) mM EDTA, 0.1 mM GTP, 1 mM dithiothreitol, 0.12% CHAPS and 0.2mg/ml bovine serum albumin. In the [^35S] GTPγS binding assay, the complex was incubated as described above except that 1 μM [^35S] GTPγS was used instead of 0.1 mM GTP. At the indicated time, an aliquot of the reaction sample was removed, and passed through nitrocellulose filters (IPVH 000, Millipore). […]

male Wistar rats = assay: Spinal cord injury (dorsal half dissected, ninth thoracic vertebra), agent pumped to the injured site; assay type: in vivo, rat; conditions: species not stated
Method: 200 g male Wistar rats were used. After the ninth thoracic vertebrae laminectomy was performed, the dorsal half of the spinal cord was dissected. A continuous osmotic pump was used to continuously administer either TAT(PTD domain)-fused Pep5 (TAT-[…]) (SEQ ID NO. 2) or TAT(PTD domain)-fused control peptide (TAT-[…]) (SEQ ID NO. 15) to the injured site for 6 weeks ([…]). In this case, the tip of a tube connected to the pump was left in the medullary space. After spinal cord injury, the functional recovery was assessed using the BBB score. The animals were observed on day 7, 14, 21, 28, 35, and 42 after injury. These experiments were carried out using techniques described in Fournier A. E., Takizawa, B. T., Strittmatter, S. M., J. Neurosci. 2003, 23, 1416-1423.
200 g male Wistar rats were used. After the ninth thoracic vertebrae laminectomy was performed, the dorsal half of the spinal cord was dissected. A continuous osmotic pump was used to continuously administer either TAT-fused Pep5 or TAT (PTD domain)-fused control peptide to the injured site.

Row | Molecule | Dbl stimulated dissociation of GDP from GDP-RhoA complexed with Rho GDI [1] | nerve regeneration, similar experiments with modified amino acids (Example 2-8) (male Wistar rats)
1 | p75 ICD: GST-fused intracellular domain (ICD) of p75 (protein, left off: a dimerising Fc or GST) KRWNSCKQNKQGANSRPVNQTPPPEGEKLHSDSGISVDSQSLHDQQTHTQTASGQALKGDGNLYSSLPLTKREEVEKLLNGDTWRHLAGELGYQPEHIDSFTHEACPVRALLASWGAQDSATLDALLAALRRIQRADIVESLCSESTATSPV | showed the inhibitory effect to the same extent as p75 HD | –
2 | p75 in which alanine was replaced with valine at amino acid 423: p75 positions 273-427 of SEQ ID NO. 4 with alanine replaced with valine at amino acid 423 (protein, Homo sapien) KRWNSCKQNKQGANSRPVNQTPPPEGEKLHSDSGISVDSQSLHDQQPHTQTASGQALKGDGGLYSSLPPAKREEVEKLLNGSAGDTWRHLAGELGYQPEHIDSFTHEACPVRALLASWATQDSATLDALLAALRRIQRADLVESLCSESTVTSPV | – | nerve regeneration was similarly observed
